Article PMC10057511

Target: AP2α/σ2 hemicomplex, both subunits fused to the Venus C-terminal fragment and V5 (UniProt O94973)
Experiment: split reporter (BiFC, NanoBiT); HEK293 cells co-transfected with AP2α-Venus-C-V5, AP2σ2-Venus-C-V5 and Nef-HA-Venus-N (400 ng each); fixed the next day in 2% PFA; Venus fluorescence (FITC channel) read by flow cytometry as MFI

UniProt O94973, sequence (O94973 whole entry, chain 1 of 2, the tested form may be a part): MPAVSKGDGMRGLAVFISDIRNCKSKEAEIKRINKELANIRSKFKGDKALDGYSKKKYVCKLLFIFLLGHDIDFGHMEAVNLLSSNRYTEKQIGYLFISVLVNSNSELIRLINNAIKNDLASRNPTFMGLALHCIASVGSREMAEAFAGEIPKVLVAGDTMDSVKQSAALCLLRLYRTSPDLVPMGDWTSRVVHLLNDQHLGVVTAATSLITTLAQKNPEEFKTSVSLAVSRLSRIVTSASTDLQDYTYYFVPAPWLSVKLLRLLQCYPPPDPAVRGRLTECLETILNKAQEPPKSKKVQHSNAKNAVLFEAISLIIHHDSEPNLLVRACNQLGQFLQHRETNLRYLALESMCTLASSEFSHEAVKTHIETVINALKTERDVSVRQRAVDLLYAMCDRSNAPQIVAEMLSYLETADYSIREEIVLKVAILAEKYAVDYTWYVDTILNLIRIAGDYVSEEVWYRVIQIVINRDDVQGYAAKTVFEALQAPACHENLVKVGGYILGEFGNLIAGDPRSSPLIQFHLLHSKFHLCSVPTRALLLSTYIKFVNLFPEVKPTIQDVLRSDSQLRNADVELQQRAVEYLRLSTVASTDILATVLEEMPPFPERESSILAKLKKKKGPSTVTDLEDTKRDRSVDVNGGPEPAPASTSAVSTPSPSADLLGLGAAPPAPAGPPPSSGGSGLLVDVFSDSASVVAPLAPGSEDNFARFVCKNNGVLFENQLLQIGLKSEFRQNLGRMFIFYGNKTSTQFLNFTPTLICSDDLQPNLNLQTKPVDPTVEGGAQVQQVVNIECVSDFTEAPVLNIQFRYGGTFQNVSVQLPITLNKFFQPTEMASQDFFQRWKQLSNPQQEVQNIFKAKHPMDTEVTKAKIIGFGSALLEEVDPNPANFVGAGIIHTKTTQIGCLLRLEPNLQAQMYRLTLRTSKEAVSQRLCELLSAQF
UniProt O94973, sequence (P53680 whole entry, chain 2 of 2, further chain, the tested form may be a part): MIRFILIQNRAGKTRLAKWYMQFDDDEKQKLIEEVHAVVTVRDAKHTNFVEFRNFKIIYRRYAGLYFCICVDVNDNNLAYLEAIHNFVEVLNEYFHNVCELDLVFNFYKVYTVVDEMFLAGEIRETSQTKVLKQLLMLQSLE

“Nef protein from the LAI isolate lacking the leucine-based sorting motif (LL/AA) fused to HA and the N-terminal fragment of Venus (from UniProt P03406 1-206) (natural protein)” gave a decrease of BiFC fluorescence against Nef^LAI of 50%.
